This passage reports t1/2 results from PMC8409985.

This experiment has as its target truncated human ACE2 ectodomain (residues 19–613) with C-terminal AVI-tag and 6xHis-tag, biotinylated (human) (UniProt Q9BYF1). The experiment can be described thus: BLI.

Substance “SARS-CoV-2 RBD variant N439K (from UniProt P0DTC2 319-541) (domain or fragment)” had a t1/2 of 111 s.

The substance “SARS-CoV-2 RBD variant N501Y (from UniProt P0DTC2 319-541) (domain or fragment)” returned a t1/2 of 329 s.
